Patent US20080234193A1 (published 2008)
“And” between values parts separate entries of the source, which are not always exact repeats. Identical values can stand only once.

Columns and labels:
[1] = molecular target: PEG-rFVIII Lys 60K br long (UniProt P00451)
[2] = molecular target: PEG-rFVIII Lys 20K br long (UniProt P00451)
[3] = molecular target: PEG-rFVIII Lys 40K br long (UniProt P00451)
[4] = molecular target: native rFVIII MOQ HEPES 01-E (Advate rAHF-PFM bulk drug substance) (UniProt P00451)
[5] = molecular target: PEG-rFVIII Lys 40K br short (UniProt P00451)
[6] = molecular target: PEG-rFVIII Lys 60K br short (UniProt P00451)
[7] = molecular target: PEG-rFVIII Lys 20K br short (UniProt P00451)
[8] = molecular target: native rFVIII MOQ HEPES 01-E (Advate rAHF-PFM bulk drug substance) (UniProt P00451); test: ECA, value related to the rVWF protein
[9] = molecular target: native rFVIII MOQ HEPES 01-E (Advate rAHF-PFM bulk drug substance) (UniProt P00451); test: ELISA chromogenic assay (ECA): VWF-rFVIII complex captured on anti-VWF antibody, bound FVIII by chromogenic assay
[10] = molecular target: native rFVIII MOQ HEPES 01-E (Advate rAHF-PFM bulk drug substance) (UniProt P00451); test: ECA, value as percent of VWF:Ag
[11] = molecular target: native rVWF 133P1 (human) (UniProt P04275); test: SPR (Biacore 3000): native rVWF 133P1 immobilized on CM5 chip, FVIII sample in flow, 1:1 Langmuir model
[12] = molecular target: activated factor IX (FIXa); test: cell-based or functional assay
[13] = molecular target: native rFVIII MOQ HEPES 01-E (Advate rAHF-PFM bulk drug substance) (UniProt P00451); test: SPR (Biacore 3000): rVWF sample immobilized on CM5 chip, rFVIII in flow, 1:1 Langmuir model; mean of 133P1-1 and 133P1-2
[14] = molecular target: native rFVIII MOQ HEPES 01-E (Advate rAHF-PFM bulk drug substance) (UniProt P00451); test: ELISA chromogenic assay (ECA): VWF-rFVIII complex captured on anti-VWF antibody, bound FVIII by chromogenic assay; remark: listed apart in the source
[15] = molecular target: native rFVIII MOQ HEPES 01-E (Advate rAHF-PFM bulk drug substance) (UniProt P00451); test: SPR competition (Biacore): VWF-rFVIII complex (5 IU/ml rFVIII) in flow over immobilized unmodified rVWF (competitor)
[16] = molecular target: native rFVIII MOQ HEPES 01-E (Advate rAHF-PFM bulk drug substance) (UniProt P00451); test: ECA after in vitro incubation in Hepes buffer pH ~7.5 at ambient temperature, day 2
[17] = molecular target: native rFVIII MOQ HEPES 01-E (Advate rAHF-PFM bulk drug substance) (UniProt P00451); test: ECA after in vitro incubation in Hepes buffer pH ~7.5 at ambient temperature, day 5
[18] = molecular target: native rFVIII MOQ HEPES 01-E (Advate rAHF-PFM bulk drug substance) (UniProt P00451); test: SPR (Biacore 3000): rVWF sample immobilized on CM5 chip, rFVIII in flow, 1:1 Langmuir model
[19] = molecular target: native rFVIII MOQ HEPES 01-E (Advate rAHF-PFM bulk drug substance) (UniProt P00451); test: as above; remark: listed apart in the source
[20] = molecular target: native rFVIII MOQ HEPES 01-E (Advate rAHF-PFM bulk drug substance) (UniProt P00451); test: ECA after in vitro incubation in Hepes buffer pH ~7.5 at ambient temperature, day 0
[21] = molecular target: native rFVIII MOQ HEPES 01-E (Advate rAHF-PFM bulk drug substance) (UniProt P00451); test: ELISA chromogenic assay (ECA): VWF-rFVIII complex captured on anti-VWF antibody, bound FVIII by chromogenic assay; percent of VWF:Ag
[22] = molecular target: native rFVIII MOQ HEPES 01-E (Advate rAHF-PFM bulk drug substance) (UniProt P00451); test: ELISA chromogenic assay (ECA); mean of 133P1-1 to 133P1-3
[23] = molecular target: native rFVIII MOQ HEPES 01-E (Advate rAHF-PFM bulk drug substance) (UniProt P00451); test: ECA after in vitro incubation in Hepes buffer pH ~7.5 at ambient temperature, day 8
[24] = molecular target: FVIII control (mock preparation, not PEGylated) (UniProt P00451)
[25] = molecular target: native rVWF 133P1, P04275
[26] = molecular target: PEG-rVWF Lys 20K br short low, P04275
[27] = molecular target: PEG-rVWF Lys 20K br long low, P04275
[28] = molecular target: PEG-rVWF Lys 40K br short low, P04275
[29] = molecular target: PEG-rVWF Lys 40K br long low, P04275

Chain of PEG-rFVIII Lys 20K br short (P00451 whole entry, looked up): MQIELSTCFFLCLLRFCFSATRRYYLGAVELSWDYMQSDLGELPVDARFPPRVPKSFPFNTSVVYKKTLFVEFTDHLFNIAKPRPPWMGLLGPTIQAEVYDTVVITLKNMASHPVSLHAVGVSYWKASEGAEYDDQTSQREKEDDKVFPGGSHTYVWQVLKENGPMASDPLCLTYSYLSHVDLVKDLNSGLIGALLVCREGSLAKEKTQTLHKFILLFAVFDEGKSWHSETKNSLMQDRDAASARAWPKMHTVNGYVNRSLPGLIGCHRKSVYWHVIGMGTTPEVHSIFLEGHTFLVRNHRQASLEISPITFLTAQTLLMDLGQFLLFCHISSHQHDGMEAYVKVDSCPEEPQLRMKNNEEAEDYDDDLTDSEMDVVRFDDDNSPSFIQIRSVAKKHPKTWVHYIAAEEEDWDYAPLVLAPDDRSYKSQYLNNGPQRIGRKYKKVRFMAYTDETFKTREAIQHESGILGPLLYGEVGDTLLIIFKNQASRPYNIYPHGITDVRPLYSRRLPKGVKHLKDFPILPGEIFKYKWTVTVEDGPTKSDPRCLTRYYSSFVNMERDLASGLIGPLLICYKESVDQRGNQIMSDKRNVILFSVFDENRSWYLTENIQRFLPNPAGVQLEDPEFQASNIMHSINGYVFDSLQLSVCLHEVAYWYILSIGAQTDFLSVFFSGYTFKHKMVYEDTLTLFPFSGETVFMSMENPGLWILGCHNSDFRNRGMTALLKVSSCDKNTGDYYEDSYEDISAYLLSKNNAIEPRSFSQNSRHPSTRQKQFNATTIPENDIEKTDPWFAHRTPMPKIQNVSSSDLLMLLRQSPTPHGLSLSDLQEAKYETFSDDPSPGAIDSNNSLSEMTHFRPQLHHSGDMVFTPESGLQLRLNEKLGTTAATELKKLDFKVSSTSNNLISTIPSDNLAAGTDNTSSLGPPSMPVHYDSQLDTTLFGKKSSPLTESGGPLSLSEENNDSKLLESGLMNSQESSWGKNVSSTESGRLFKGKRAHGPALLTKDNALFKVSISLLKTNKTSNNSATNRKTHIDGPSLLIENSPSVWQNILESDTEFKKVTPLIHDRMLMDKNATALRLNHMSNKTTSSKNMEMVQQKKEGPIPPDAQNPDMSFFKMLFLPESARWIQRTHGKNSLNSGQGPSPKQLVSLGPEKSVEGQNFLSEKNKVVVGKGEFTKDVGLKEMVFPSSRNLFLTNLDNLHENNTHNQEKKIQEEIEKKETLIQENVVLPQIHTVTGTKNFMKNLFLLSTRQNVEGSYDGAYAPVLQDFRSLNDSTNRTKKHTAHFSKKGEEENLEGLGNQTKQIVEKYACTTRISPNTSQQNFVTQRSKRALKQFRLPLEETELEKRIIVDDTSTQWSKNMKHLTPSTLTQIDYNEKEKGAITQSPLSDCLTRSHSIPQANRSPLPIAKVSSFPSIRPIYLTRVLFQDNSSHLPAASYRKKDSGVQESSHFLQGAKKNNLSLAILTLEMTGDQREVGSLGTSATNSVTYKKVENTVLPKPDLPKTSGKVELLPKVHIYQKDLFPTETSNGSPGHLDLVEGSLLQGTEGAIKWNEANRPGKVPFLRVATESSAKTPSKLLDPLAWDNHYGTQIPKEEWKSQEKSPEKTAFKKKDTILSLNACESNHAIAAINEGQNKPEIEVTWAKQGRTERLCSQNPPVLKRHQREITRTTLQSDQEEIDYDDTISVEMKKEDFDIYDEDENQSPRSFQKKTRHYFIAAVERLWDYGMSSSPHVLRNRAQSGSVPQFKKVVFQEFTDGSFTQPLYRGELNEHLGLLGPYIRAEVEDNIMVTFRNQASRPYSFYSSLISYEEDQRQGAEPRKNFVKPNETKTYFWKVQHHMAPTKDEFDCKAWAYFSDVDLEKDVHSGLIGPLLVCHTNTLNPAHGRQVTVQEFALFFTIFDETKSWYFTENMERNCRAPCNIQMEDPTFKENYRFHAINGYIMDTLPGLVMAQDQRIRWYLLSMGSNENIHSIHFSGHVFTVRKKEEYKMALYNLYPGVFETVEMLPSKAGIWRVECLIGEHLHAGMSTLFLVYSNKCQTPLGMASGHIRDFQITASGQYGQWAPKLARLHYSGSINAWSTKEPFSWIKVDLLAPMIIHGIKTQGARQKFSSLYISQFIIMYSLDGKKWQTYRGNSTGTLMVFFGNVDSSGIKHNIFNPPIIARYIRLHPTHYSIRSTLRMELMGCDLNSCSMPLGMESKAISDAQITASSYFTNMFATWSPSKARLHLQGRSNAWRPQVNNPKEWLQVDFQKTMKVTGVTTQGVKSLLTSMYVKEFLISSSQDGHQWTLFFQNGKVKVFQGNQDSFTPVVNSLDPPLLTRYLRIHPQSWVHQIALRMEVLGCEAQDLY
Chain of PEG-rFVIII Lys 40K br short (P00451 whole entry, looked up): as above
Chain of PEG-rFVIII Lys 60K br short (P00451 whole entry, looked up): as above
Chain of PEG-rFVIII Lys 40K br long (P00451 whole entry, looked up): as above
Chain of PEG-rFVIII Lys 60K br long (P00451 whole entry, looked up): as above
Chain of PEG-rFVIII Lys 20K br long (P00451 whole entry, looked up): as above
Chain of FVIII control (mock preparation, not PEGylated) (P00451 whole entry, looked up): as above
Chain of native rFVIII MOQ HEPES 01-E (Advate rAHF-PFM bulk drug substance) (P00451 whole entry, looked up): as above

Molecule activated protein C (APC) has a Relative k' of APC-mediated inactivation (non-activated FVIII) relative to native rFVIII [1] of 0.38, a Relative k' of APC-mediated inactivation of thrombin-activated FVIII relative to native rFVIIIa [1] of 0.64 and a Relative k' of APC-mediated inactivation (non-activated FVIII) relative to native rFVIII [2] of 0.56. For the same molecule, the Relative k' of APC-mediated inactivation of thrombin-activated FVIII relative to native rFVIIIa [2] was 0.5, the Relative k' of APC-mediated inactivation (non-activated FVIII) relative to native rFVIII [3] was 0.35 and the Relative k' of APC-mediated inactivation of thrombin-activated FVIII relative to native rFVIIIa [3] was 0.54. For the same molecule, the “first order rate of inactivation k', non-activated rFVIII, 0.05 U/ml APC” value [4] was “a first order rate inactivation was observed, with a k' of 0.220*min^-1”, the Relative k' of APC-mediated inactivation (non-activated FVIII) relative to native rFVIII [5] was 0.44 and the Relative k' of APC-mediated inactivation of thrombin-activated FVIII relative to native rFVIIIa [5] was 0.55. For the same molecule, the Relative k' of APC-mediated inactivation (non-activated FVIII) relative to native rFVIII [6] was 0.52, the Relative k' of APC-mediated inactivation of thrombin-activated FVIII relative to native rFVIIIa [6] was 0.54 and the Relative k' of APC-mediated inactivation (non-activated FVIII) relative to native rFVIII [7] was 0.46. For the same molecule, the Relative k' of APC-mediated inactivation of thrombin-activated FVIII relative to native rFVIIIa [7] was 0.5.

With “rVWF control (mock preparation, not PEGylated) (from UniProt P04275 764-2813)” the VWF:FVIIIB (U/mg) [8] was 95 U/mg, the VWF:FVIIIB (U/ml) [9] was 15.5 U/ml and the VWF:FVIIIB capacity (%) [10] was 84%.

Work on “native rFVIII MOQ HEPES 01-E (Advate rAHF-PFM bulk drug substance) (from UniProt P00451 20-2351)” yielded a Kd [11] of 1500 pM, a lag phase (min), FIXa-cofactor activity after thrombin activation [12] of 1.15 min and a lag phase (min), FIXa-cofactor activity without thrombin activation [12] of 2.4 min. It also gave a maximum FXa (nM), FIXa-cofactor activity after thrombin activation [12] of 25.1 nM, a maximum FXa (nM), FIXa-cofactor activity without thrombin activation [12] of 30.1 nM and a maximum rate (nM FXa/min), FIXa-cofactor activity after thrombin activation [12] of 4.24 nM FXa/min. It also gave a maximum rate (nM FXa/min), FIXa-cofactor activity without thrombin activation [12] of 6.7 nM FXa/min, a t1/2 of maximum (min), FIXa-cofactor activity after thrombin activation [12] of 4.24 min and a t1/2 of maximum (min), FIXa-cofactor activity without thrombin activation [12] of 4.6 min.

“native rVWF 133P1 (from UniProt P04275 764-2813)” gave a VWF:FVIIIB (U/mg) [8] of 134 U/mg, a Kd [13] of 390 pM and a VWF:FVIIIB (U/ml) [14] of 46 U/ml. The VWF to FVIII ratio to keep all FVIII in a complex [15] was 1 µg/IU, the VWF:FVIIIB (U/ml) [9] was 47.9 U/ml and 37.9 U/ml and 37.8 U/ml and the VWF:FVIIIB specific activity (U/mg protein) [16] was 66 U/mg protein. For the same molecule, the VWF:FVIIIB specific activity (U/mg protein) [17] was 93 U/mg protein, the Kd [18] was 290 pM and 550 pM and 480 pM and the Kd [19] was 549 pM. It also gave a VWF:FVIIIB specific activity (U/mg protein) [20] of 81 U/mg protein, a VWF:FVIIIB capacity (%) [21] of 84% and a VWF:FVIIIB (U/ml) [22] of 41.2 U/ml. The VWF:FVIIIB specific activity (U/mg protein) [23] was 84 U/mg protein.

thrombin was tested, and the Relative k' (first order inactivation rate relative to native rFVIII), 0.5 nM thrombin, FIXa-cofactor assay [24] was 0.72, the Relative k' (first order inactivation rate relative to native rFVIII), 0.5 nM thrombin, FIXa-cofactor assay [1] was 0.51 and the Relative k' (first order inactivation rate relative to native rFVIII), 0.5 nM thrombin, FIXa-cofactor assay [2] was 0.39. The Relative k' (first order inactivation rate relative to native rFVIII), 0.5 nM thrombin, FIXa-cofactor assay [3] was 0.44, the Relative k' (first order inactivation rate relative to native rFVIII), 0.5 nM thrombin, FIXa-cofactor assay [5] was 0.48 and the Relative k' (first order inactivation rate relative to native rFVIII), 0.5 nM thrombin, FIXa-cofactor assay [6] was 0.46. It also gave a Relative k' (first order inactivation rate relative to native rFVIII), 0.5 nM thrombin, FIXa-cofactor assay [7] of 0.35.

B1: ADAMTS13 (VWF cleaving protease) (protein)
chain: AAGGILHLELLVAVGPDVFQAHQEDTERYVLTNLNIGAELLRDPSLGAQFRVHLVKMVILTEPEGAPNITANLTSSLLSVCGWSQTINPEDDTDPGHADLVLYITRFDLELPDGNRQVRGVTQLGGACSPTWSCLITEDTGFDLGVTIAHEIGHSFGLEHDGAPGSGCGPSGHVMASDGAAPRAGLAWSPCSRRQLLSLLSAGRARCVWDPPRPQPGSAGHPPDAQPGLYYSANEQCRVAFGPKAVACTFAREHLDMCQALSCHTDPLDQSSCSRLLVPLLDGTECGVEKWCSKGRCRSLVELTPIAAVHGRWSSWGPRSPCSRSCGGGVVTRRRQCNNPRPAFGGRACVGADLQAEMCNTQACEKTQLEFMSQQCARTDGQPLRSSPGGASFYHWGAAVPHSQGDALCRHMCRAIGESFIMKRGDSFLDGTRCMPSGPREDGTLSLCVSGSCRTFGCDGRMDSQQVWDRCQVCGGDNSTCSPRKGSFTAGRAREYVTFLTVTPNLTSVYIANHRPLFTHLAVRIGGRYVVAGKMSISPNTTYPSLLEDGRVEYRVALTEDRLPRLEEIRIWGPLQEDADIQVYRRYGEEYGNLTRPDITFTYFQPKPRQAWVWAAVRGPCSVSCGAGLRWVNYSCLDQARKELVETVQCQGSQQPPAWPEACVLEPCPPYWAVGDFGPCSASCGGGLRERPVRCVEAQGSLLKTLPPARCRAGAQQPAVALETCNPQPCPARWEVSEPSSCTSAGGAGLALENETCVPGADGLEAPVTEGPGSVDEKLPAPEPCVGMSCPPGWGHLDATSAGEKAPSPWGSIRTGAQAAHVWTPAAGSCSVSCGRGLMELRFLCMDSALRVPVQEELCGLASKPGSRREVCQAVPCPARWQYKLAACSVSCGRGVVRRILYCARAHGEDDGEEILLDTQCQGLPRPEPQEACSLEPCPPRWKVMSLGPCSASCGLGTARRSVACVQLDQGQDVEVDEAACAALVRPEASVPCLIADCTYRWHVGTWMECSVSCGDGIQRRRDTCLGPQAQAPVPADFCQHLPKPVTVRGCWAGPCVGQGTPSLVPHEEAAAPGRTTATPAGASLEWSQARGLLFSPAPQPRRLLPGPQENSVQSSACGRQHLEPTGTIDMRGPGQADCAVAIGRPLGEVVTLRVLESSLNCSAGDMLLLWGRLTWRKMCRKLLDMTFSSKTNTLVVRQRCGRPGGGVLLRYGSQLAPETFYRECDMQLFGPWGEIVSPSLSPATSNAGGCRLFINVAPHARIAIHALATNMGAGTEGANASYILIRDTHSLRTTAFHGQQVLYWESESSQAEMEFSEGFLKAQASLRGQYWTLQSWVPEMQDPQSWKGKEGT
B1 was tested, and the “disappearance of higher molecular weight multimers after incubation with ADAMTS13” value [25] was “All preparations showed similar sensitivity to ADAMTS13”, the “loss of VWF:CB activity after 4 h incubation with ADAMTS13 under denaturing conditions” value (shortened to “loss of VWF:CB activity”) [26] was “The PEGylated conjugates showed a slightly higher susceptibility to ADAMTS13 than their parent native rVWF” and the “loss of VWF:CB activity” value [27] was “The PEGylated conjugates showed a slightly higher susceptibility to ADAMTS13 than their parent native rVWF”. The “loss of VWF:CB activity” value [28] was “The PEGylated conjugates showed a slightly higher susceptibility to ADAMTS13 than their parent native rVWF” and the “loss of VWF:CB activity” value [29] was “The PEGylated conjugates showed a slightly higher susceptibility to ADAMTS13 than their parent native rVWF”.
